# Measurements from the DeepSol protein solubility set.
# Experiment: soluble on expression in E. coli; label from the status in PepcDB or PDB records
row,Sequence,soluble on expression in E. coli
1,SSSSLVEAAAGLPEKGLMVCKWLGTGSAGYGGYKASEYFFPIDNEEFRENLEDWESTLQSWEKLKNYLEGMHKGPVGNQTRTH,soluble
2,STFQFNFTIEDHLENELTPIRDGALTLDSSKELSVSESQKGEERDRKCSAEQFDLPQDHLWEHKSMENAAPSQDTDSPLSAASSSRNLEPHGKQPSLRAAKEHAMPKDLKKMLENKVIETLPGFQHVKLSVVKTILLKENFPGENIVSKSFSSHSDLITGVYEGGLKIWECTFDLLAYFTKAKVKFAGKKVLDLGCGSGLLGITAFKGGSKEIHFQDYNSMVIDEVTLPNVVANSTLEDEENDVNEPDVKRCRKPKVTQLYKCRFFSGEWSEFCKLVLSSEKLFVKYDLILTSETIYNPDYYSNLHQTFLRLLSKNGRVLLASKAHYFGVGGGVHLFQKFVEERDVFKTRILKIIDEGLKRFIIEITFKFPG,not soluble
3,STGPVAPLPTPPNFPNDIALFQQAYQNWSKEIMLDATWVCSPKTPQDVVRLANWAHEHDYKIRPRGAMHGWTPLTVEKGANVEKVILADTMTHLNGITVNTGGPVATVTAGAGASIEAIVTELQKHDLGWANLPAPGVLSIGGALAVNAHGAALPAVGQTTLPGHTYGSLSNLVTELTAVVWNGTTYALETYQRNDPRITPLLTNLGRCFLTSVTMQAGPNFRQRCQSYTDIPWRELFAPKGADGRTFEKFVAESGGAEAIWYPFTEKPWMKVWTVSPTKPDSSNEVGSLGSAGSLVGKPPQAREVSGPYNYIFSDNLPEPITDMIGAINAGNPGIAPLFGPAMYEITKLGLAATNANDIWGWSKDVQFYIKATTLRLTEGGGAVVTSRANIATVINDFTEWFHERIEFYRAKGEFPLNGPVEIRCCGLDQAADVKVPSVGPPTISATRPRPDHPDWDVAIWLNVLGVPGTPGMFEFYREMEQWMRSHYNNDDATFRPEWSKGWAFGPDPYTDNDIVTNKMRATYIEGVPTTENWDTARARYNQIDPHRVFTNGFMDKLLP,soluble
4,STGQGQSASGSSAWSTVFRHVRYENLIAGVSGGVLSNLALHPLDLVKIRFAVSDGLELRPKYNGILHCLTTIWKLDGLRGLYQGVTPNIWGAGLSWGLYFFFYNAIKSYKTEGRAERLEATEYLVSAAEAGAMTLCITNPLWVTKTRLMLQYDAVVNSPHRQYKGMFDTLVKIYKYEGVRGLYKGFVPGLFGTSHGALQFMAYELLKLKYNQHINRLPEAQLSTVEYISVAALSKIFAVAATYPYQVVRARLQDQHMFYSGVIDVITKTWRKEGVGGFYKGIAPNLIRVTPACCITFVVYENVSHFLLDLREKRK,soluble
5,STRHPENYQWENWSLENVATILAHRFPNSYIWVIKCSRMHLHKFSCYDNFVKSNMFGAPEHNTDFGAFKHLYMLLVNAFNLSQNSLSKKSLNVWNKDSIASNCRSSPSHTTNGCQGEKVRTCEKSDESAMSFYPPSLNDASFTLIGFSKGCVVLNQLLFELKEAKKDKNIDAFIKSIRTMYWLDGGHSGGSNTWVTYPEVLKEFAQTGIIVHTHVTPYQVRDPMRSWIGKEHKKFVQILGDLGMQVTSQIHFTKEAPSIENHFRVHEVF,soluble
6,SVKRLFKVRSDLDFAEQLWCKMSSSVISYQDLVKCFTLIIQSLQRGDIQPWLHSGSNSLLSKLIHQSYHGTMDTVSLSGTIPVQMLLEIGLDKLKKDYISFFIGQELASLNHLEYFIAPSVDIQEQVYRVQKLHHILEILVSCMPFIKSQHELLFSLTQICIKYYKQNPLDEQHIFQLPVRPTAVKNLYQSEKPQKWRVEIYSGQKKIKTVWQLSDSSPIDHLNFHKPDFSELTLNGSLEERIFFTNMVTCSQVHFK,soluble
7,SVRVMQLTLGNSTITTQEAANSVVAYGRWPEYIKDSEANPVDQPTEPDVAACRFYTLDTVTWRKESRGWWWKLPDALKDMGLFGQNMFYHYLGRAGYTVHVQCNASKFHQGALGVFAVPEMCLAGDSTTHMFTKYENANPGEKGGEFKGSFTLDTNATNPARNFCPVDYLFGSGVLAGNAFVYPHQIINLRTNNCATLVLPYVNSLSIDSMTKHNNWGIAILPLAPLDFATESSTEIPITLTIAPMCCEFNGLRNITVPRTQ,soluble
8,SWQSYVDDHLMCDVEGNHLTAAAILGQDGSVWAQSAKFPQLKPQEIDGIKKDFEEPGFLAPTGLFLGGEKYMVIQGEQGAVIRGKKGPGGVTIKKTNQALVFGFYDEPMTGGQCNLVVERLGDYLIESEL,soluble
9,SYPYILISGHKHPRLSMHRGAKKRKGEYFGPYPDSGAVRETLHLLQKIFPVRQCEDTVYSNRTRPCLMYQIGRCAGPCVSSIISDEEYAELVGFVRLFLQGKDQQVLKQLIEKMEVASQQLRFEDAAKFRDQIQAIRRVQEQQYVSEDSMDDMDVLGFAQENGIACIHILMIRQGKVLGSRSHFPKIPQNTSQQEVFDSFLTQYYLSHNEARTIPSRIILNQELADDLEPIQKALSEVAGRKVHFHTSPTGARGRYLKLSNTNALTAITTKINHKMTINQRFKALRETLGMESIMRMECFDISHTMGESTIASCVVFNNEGPVKQEYRRYNITGITGGDDYAAMGQALERRYSKQLDVEKIPDIIFIDGGKGQLNRAHEIIAQYWGDWPKRPIMIGIAKGVTRKPGLETLITVDGEEFNLPSDAPALHLIQHIRDESHNHAIAGHRAKRGKTRR,not soluble
10,TDLVAVWDVALSDGVHKIEFEHGTTSGKRVVYVDGKEEIRKEWMFKLVGKETFYVGAAKTKATINIDAISGFAYEYTLEINGKSLKKYMEDRSKTTNTWVLHMDGENFRIVLEKDAMDVWCNGKKLETAGEFVDDGTETHFSIGNHDCYIKAVSSGKRKEGIIHTLIVD,not soluble
11,TEELHKIEDIIRIFNDCFSQEYNTRLAKGGDYPIYLPAYRAENNTPSDRPYHVILFAHGYYSSALHEIAHWLVAGTARRQLEDFGYWYEPDGRSAEQQREFETVEVKPQAIEWILATAADFRYFASADNLSGNAGDNSAFKQAVYQQVKIYANRGYLPKRAEKLRQALAKFYGTTDQINLANFEIT,not soluble
12,TEVELAYLVSESQLIGITGSNGKTTTTTMIAEVLNAGGQRGLLAGNIGFPASEVVQAANDKDTLVMELSSFQLMGVKEFRPHIAVITNLMPTHLDYHGSFEDYVAAKWNIQNQMSSSDFLVLNFNQGISKELAKTTKATIVPFSTTEKVDGAYVQDKQLFYKGENIMSVDDIGVPGSHNVENALATIAVAKLAGISNQVIRETLSNFGG,not soluble
13,TGASNYYIIFTSGTTGVPKGVQISHDNLVSFTNWLLQDFGLEEGARFLAQAPYSFDLSVMSIYPALALGGSLTPLPNEIINDFKQLFTRLPQLTIDVWVSTPSFIELCLMEPSFDGEHLPALRTFLFCGEELPKPTAEKLAARFPTAHIYNTYGPTEATVAISAIEITQEVLKSVQ,not soluble
14,THMRCRVYYEDTDSEGVVYHANYLKYCERARSEFFFKQNVLPENEEGVFVIRSIKADFFTPASLGQVLEIRTQIKELRKVFVVLFQEIYCIQNASLEPMKPFKVFASEIKFGFVNRSTYSPIAIPKLFKELLNAI,soluble
15,THRAFNPKTLYIDASTSALKYSQGSTVYFRLPLDDIVRVQIQKESFSSQSLMIYTVNDSYQVPNSDNFDSLQLKYLMKKLEKRLDDQRR,not soluble
16,TINPVMQQVAYDQLTAKGYTGSVVAIEPSTGRILTMVSTPSYDPNSLASHDGTETTQAWEALNADPEKPLINRAVSQTYPPGSTFKVVVTAAALAAGTTPDTQLTAAPQITLPGTSTTLENYNGSTCGGAPTASLREAFARSCNTAFVELGVKTGTDAVSDQSSALGIGGQMPGVPFPVADSTIGSIPDDAALGQSSIGQRDVALTPLQNAMIAATVANGGVRMQPQLVSELQGPDLSNLATTNPVSEGQAMSSQVAATLTDLMIGSENNTSGEGKIPGVQIASKTGTAEHGTDPRNTPPHAWYIGFAPAQNPTVAIAVIVEDGGDRALAATGGSVAAPIGRAVIAAGLQGG,not soluble
17,TKDFSWRTSLNFAYNKNKIVDLQYKENLTSRGLSLAGMSGDYSNLWIIGQPIDINYNLMTLGVWQLDEAEEAAKYGCKPGQYKPLDLNEDGVIDDKDRVIDGKRTPDWTGGMTNTFTYKEFDLSFQAAFQAGARARNQFYVSYALENNNLNFNNLRKDYWTPENPTNASAQPSNMGTYRSKAGSWGNAKSEMSHTMFSSNFLKISYITLGYTFKPSVLEKMKLGNLRLYATVQNPFIFCAKDVVDPEQLNVSINTSDAMTRNVIFGINLSFK,not soluble
